Measured values published in PMC11754754, “Structure and mechanism of biosynthesis of Streptococcus mutans cell wall polysaccharide” (Nature Communications, 2025).

What was measured:
[1] = tested on: O=c1ccn([C@@H]2O[C@H](CO[P@@](=O)(O)O[P@@](=O)(O)O[C@H]3O[C@H](CO)[C@@H](O)[C@H](O)[C@H]3O)[C@@H](O)[C@H]2O)c(=O)[nH]1; test: radiometric [3H]Glc-lipid formation, E. coli membrane fraction; format: biochemical, Streptococcus mutans; conditions: labelled compound (UDP-[3H]Glc), co-substrate Und-P in CHAPS, 20 mM MgCl2, pH 7.4, 37 °C
Source text: (§1) radiometric [3H]Glc-lipid formation, E. coli membrane fraction on SccN

[2] = tested on: CC(C)=CCC/C(C)=C/CC/C(C)=C/CC/C(C)=C\CC/C(C)=C\CC/C(C)=C\CC/C(C)=C\CC/C(C)=C\CC/C(C)=C\CC/C(C)=C\CC/C(C)=C\COP(=O)(O)O; test: as above; format: biochemical, Streptococcus mutans; conditions: co-substrate UDP-[3H]Glc, Und-P dispersed in CHAPS, 20 mM MgCl2, pH 7.4, 37 °C
Source text: as §1

[3] = tested on: O=c1ccn([C@@H]2O[C@H](CO[P@@](=O)(O)O[P@@](=O)(O)O[C@H]3O[C@H](CO)[C@@H](O)[C@H](O)[C@H]3O)[C@@H](O)[C@H]2O)c(=O)[nH]1; test: cells, lysate or membranes; conditions: labelled compound (UDP-[3H]Glc), co-substrate Und-P in CHAPS, 20 mM MgCl2, pH 7.4, 37 °C
Source text: (§2) radiometric [3H]Glc-lipid formation, E. coli membrane fraction on SccP

[4] = tested on: CC(C)=CCC/C(C)=C/CC/C(C)=C/CC/C(C)=C\CC/C(C)=C\CC/C(C)=C\CC/C(C)=C\CC/C(C)=C\CC/C(C)=C\CC/C(C)=C\CC/C(C)=C\COP(=O)(O)O; test: cells, lysate or membranes; conditions: co-substrate UDP-[3H]Glc, Und-P dispersed in CHAPS, 20 mM MgCl2, pH 7.4, 37 °C
Source text: as §2

Substance | Km [1] [µM] | Vmax [1] [µmol/min/mg] | Km [2] [µM] | Vmax [2] [µmol/min/mg] | Km [3] [µM] | Vmax [3] [µmol/min/mg] | Km [4] [µM] | Vmax [4] [µmol/min/mg]
SccN (Streptococcus mutans UA159) | 1.61 | 3.16 | 5.85 | 5.42 |  |  |  | 
SccP (Streptococcus mutans UA159) |  |  |  |  | 2.50 | 0.93 | 2.56 | 0.96
